Results: patent US20100055103A1 (published 2010)
Substitutions are numbered along the chain they refer to. Numbers in names are those of the source. Read-outs that look alike come from different tables or passages of the source.

Legend:
Experiment in all cases: BIAcore
[1] = molecular target: T1, Recombinant human IL-17A/F heterodimer (UniProt Q16552 24-155; Q96PD4 31-163)
[2] = molecular target: T2, Human IL-17A (R&D Systems, cat #317-IL-050/CF) (UniProt Q16552 20-155)
[3] = molecular target: T3, Human IL-17F (R&D Systems, cat #1335-IL-025/CF) (UniProt Q96PD4 31-163)
T3 chain: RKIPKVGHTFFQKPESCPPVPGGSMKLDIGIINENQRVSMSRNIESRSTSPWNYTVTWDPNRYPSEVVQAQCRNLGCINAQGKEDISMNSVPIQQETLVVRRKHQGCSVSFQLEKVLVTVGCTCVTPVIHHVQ

[4] = molecular target: T1, Recombinant human IL-17A/F heterodimer; remark: listed apart in the source
[5] = molecular target: T2, Human IL-17A (R&D Systems, cat …); remark: listed apart in the source
[6] = molecular target: T3, Human IL-17F (R&D Systems, cat …)
[7] = molecular target: cyno IL17F
[8] = molecular target: rhesus IL17A (PUR17200)
[9] = molecular target: T1, Recombinant human IL-17A/F heterodimer; remark: listed apart in the source
[10] = molecular target: T2, Human IL-17A (R&D Systems, cat …); remark: listed apart in the source
[11] = molecular target: T3, Human IL-17F (R&D Systems, cat …)
[12] = molecular target: cyno IL17F; remark: listed apart in the source
[13] = molecular target: Bi-specific
[14] = molecular target: T3, Human IL-17F (R&D Systems, cat …)

T2 sequence (Q16552 20-155): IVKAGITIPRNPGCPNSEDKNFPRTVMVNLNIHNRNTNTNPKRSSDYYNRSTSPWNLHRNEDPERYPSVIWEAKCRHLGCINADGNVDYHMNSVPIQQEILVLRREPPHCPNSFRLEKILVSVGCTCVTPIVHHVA

B1: YW278.15.9 (antibody, V domains shown)
VH: EVQLVESGGGLVQPGGSLRLSCAASGFTFTDYDISWVRQAPGKGLEWVASIDPYEGYTYYADSVKGRFTISADTSKNTAYLQMNSLRAEDTAVYYCARYLYWSYVMDYWGQGTLVTVSS
VL: DIQMTQSPSSLSASVGDRVTITCRASQDVSTAVAWYQQKPGKAPKLLIYSASFLYSGVPSRFSGSGSGTDFTLTISSLQPEDFATYYCQQSQNPQTTFGQGTKVEIKR
Kd [1]: 0.0229 nM
Kd [2]: 0.0155 nM
Kd [3]: 0.0181 nM

B2: YW278.15.3 (antibody, V domains shown)
VH: B1 VH with D52S, Y54S, E55D
VL: DIQMTQSPSSLSASVGDRVTITCRASQVISSSLAWYQQKPGKAPKLLIYGASFFYSGVPSRFSGSGSGTDFTLTISSLQPEDFATYYCQQHNDLPLTFGQGTKVEIKR
Kd [4]: 0.0167 nM
Kd [5]: 0.0152 nM
Kd [6]: 0.0283 nM
Kd [1]: 0.0935 nM
Kd [2]: 0.0242 nM
Kd [3]: 0.115 nM

B3: YW278.15.18 (antibody, V domains shown)
VH: B1 VH with D52S, Y54P, E55D, G56C
VL: B1 VL with Q92Y, N93T, P94A, Q95K, T96L
Kd [4]: 0.014 nM
Kd [5]: 0.0137 nM
Kd [6]: 0.0135 nM
Kd [7]: 0.0861 nM
Kd [8]: 0.0381 nM
Kd [9]: 0.0225 nM
Kd [10]: 0.0189 nM
Kd [11]: 0.0291 nM
Kd [12]: 0.0632 nM

B4: IL17F (ligand)
chain: T3 chain
Kd [13]: 0.71 nM

B5: YW278.15.18.C55S (antibody, V domains shown)
VH: B1 VH with D52S, Y54P, E55D, G56S
VL: B1 VL with Q92Y, N93T, P94A, Q95K, T96L
Kd [11]: 0.019 nM

B6: YW278.15.2 (antibody, V domains shown)
VH: B1 VH with T28S, T30I, D52S, E55D
VL: B1 VL with S91Y, Q92Y, N93I, P94Y, Q95P, T96A
Kd [4]: 0.0104 nM
Kd [5]: 0.0111 nM
Kd [6]: 0.0315 nM
Kd [12]: 0.209 nM

B7: YW279.1.20 (antibody, V domains shown)
VH: EVQLVESGGGLVQPGGSLRLSCAASGFSFTSYMMSWVRQAPGKGLEWVSTIYPESGATDYADSVKGRFTISADTSKNTAYLQMNSLRAEDTAVYYCAREGYYYSTSIKYYPWFDYWGQGTLVTVSS
VL: DIQMTQSPSSLSASVGDRVTITCRASQRIKRYLAWYQQKPGKAPKLLIYGASSRASGVPSRFSGSGSGTDFTLTISSLQPEDFATYYCQQRFSQHITFGQGTKVEIKR
Kd [3]: 1.59 nM

B8: YW279.1.21 (antibody, V domains shown)
VH: B7 VH
VL: B7 VL with R28S, K30S, R31S, F92Y, Q94W, I96T
Kd [1]: 11.8 nM
Kd [2]: 5.09 nM
Kd [3]: 0.0823 nM

B9: YW279.1.22 (antibody, V domains shown)
VH: B7 VH with T30P, M33F, M34I, T50M, E54V, D59V
VL: B7 VL with R28S, K30S, R31S, F92Y, Q94L, H95P
Kd [1]: 0.69 nM
Kd [2]: 0.118 nM
Kd [3]: 1.76 nM

B10: YW278.15.18.C55A (antibody, V domains shown)
VH: B1 VH with D52S, Y54P, E55D, G56A
VL: B1 VL with Q92Y, N93T, P94A, Q95K, T96L
Kd [11]: 0.0186 nM

B11: YW278.15.2.D54E (antibody, V domains shown)
VH: B1 VH with T28S, T30I, D52S
VL: B1 VL with S91Y, Q92Y, N93I, P94Y, Q95P, T96A
Kd [3]: 0.012 nM

B12: YW265.01 (antibody, V domains shown)
VL: B7 VL with R28S, K30S, R31S, R91Y, F92Y, Q94S, H95P, I96L
VH: EVQLVESGGGLVQPGGSLRLSCAASGYSFTSPYISWVRQAPGKGLEWVASIFYYSGATDYADSVKGRFTISADTSKNTAYLQMNSLRAEDTAVYYCARGGYGYNQWFYSIYQSYFDYWGQ
Kd [14]: 0.62 nM
